Results reported in patent publication US10010616B2, “Immunogenic compositions and reagents for preparing” (PURDUE RESEARCH FOUNDATION, priority 2011, dated 2018).

Legend:
[1] = reported, Hem et al., Vaccine 1995; cited from earlier work
[2] = Adsorption isotherm on aluminum hydroxide adjuvant; type: binding; conditions: Rehydragel HPA aluminum hydroxide 20-26 μg/mL, 4° C., micro BCA assay
Method: The phosphorus containing groups described herein bind adjuvants. Compounds containing a phosphorus containing group and a UV chromophore are prepared and quantitative binding data are obtained as adsorption isotherms. Briefly, Rehydragel HPA aluminum hydroxide was suspended (113 μg/mL) in buffer, and varying concentrations of each of compounds E, F, G, and H are added. The suspensions are allowed to equilibrate, and the concentration of each compound in solution at equilibrium is measured. The amount of compound adsorbed (weight/weight) is plotted against the concentration in solution to generate the adsorption isotherm. Adsorption capacity and adsorptive coefficient are calculated for each compound by double reciprocal analysis; the results are summarized in the following table.
Compound B is coupled to egg white lysozyme. […] After centrifugation, the protein concentration in the supernatant is measured by a standard micro bicinchoninic acid protein assay procedure. […]
Adsorption of Compound H (Egg white Lysozyme/Compound B conjugate) by Aluminum Hydroxide. […] The supernatant was analyzed in triplicate for compound H concentration by the micro bicinchoninic acid (BCA) assay. The amount of compound H adsorbed was determined by subtracting the amount remaining in the supernatant from the amount initially present. […]

Mice = experiment: Anti-lysozyme antibody response in mice, conjugated vs unconjugated lysozyme; type: in vivo; conditions: 10 μg dose, FIG. 2
Method: Compound B-Lysozyme-P2 is prepared in a similar manner using a greater excess of conjugating agent compound B. To determine the magnitude of immunogenic enhancement for the linker-modified protein, a dose response is evaluated comparing a range of doses of compound B-Lysozyme-P2 and AH, to a range of doses of unmodified hen egg lysozyme and AH, according to the following table:
Mice are injected on day 0 and day 21. Blood is collected on day 21 and on day 35. Serum anti-lysozyme IgG and anti-lysozyme IgG subclasses are measured by ELISA assay.
Dose response comparison of conjugated and unconjugated lysozyme immunological response. […] preparations are investigated: (A), lysozyme alone (10 μg dose); (B), lysozyme (10 μg dose)+AH; (C), lysozyme-P2 (2 conjugate load, 10 μg dose)+AH; (D) lysozyme (1 μg dose)+AH; (E), lysozyme-P2 (1 μg dose)+AH.

## lysozyme: egg white lysozyme (16 kDa MW), unmodified
[1]
  Complexation by aluminum hydroxide (in words): negligibly complexed
[2]
  Affinity for aluminum hydroxide (in words): poor electrostatic binding with aluminum hydroxide
Mice
  anti-lysozyme antibody production: does not show a significant induction of antibody response
